Source: the supplement of paper PMC12042874
± gives the uncertainty stated by the source.

Test: amyloid nucleation score (Sup35N fusion, yeast selection) (log enrichment); library NNK1; higher = more nucleation; inactive = no reads after selection
Method in brief: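 The nucleation score equals the log enrichment of output over input reads from DiMSum, centred on the mode score of non-aggregating sequences. It was computed only for sequences with 100 or more input reads. The reads came from Illumina sequencing of plasmid inserts from psi-negative yeast expressing Sup35N fused to peptides of 20 random codons, induced with 100 μM copper sulfate for 24 hours and grown 7 days at 30°C without adenine and uracil.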

Row | Substance | amyloid nucleation score
1 | HSCVPICNEYSAADRSYFRY | 0.343 ± 0.97
2 | HSFIYYWC | 7.49 ± 0.051
3 | HSGMRVPSMAYLVL | -0.259 ± 0.7
4 | HSLLVMQDVCPE | 0.69 ± 0.56
5 | HSNCVDSRCETARTS | 1.47 ± 0.47
6 | HSPCMPLTCSQTWHSLDLPF | -0.304 ± 0.55
7 | HSRYWSNIHSRWLTGRVRWG | -0.28 ± 0.51
8 | HSSKYRRFVSTTVTIVSVSR | 4.01 ± 0.09
9 | HSWYEELMVVLNISSHGHLD | 0.351 ± 0.52
10 | HSYTRIE | -0.413 ± 0.24
11 | HTEEGKSWFMRGSSVWFRVG | 0.341 ± 0.18
12 | HTHSGVYC | -0.468 ± 0.5
13 | HVFVLLPSKFADLLKKPVLL | -0.894 ± 1.7
14 | HVGHCLLLKFQSIWDFWCVC | 0.237 ± 0.69
15 | HVKACLVVASYP | 0.94 ± 0.5
16 | HVVAALWCARNFWGVLNVCC | -0.09 ± 0.53
17 | HWIMAMFMSPPANTHDEAEI | 2.45 ± 0.15
18 | HWSMCRTGFWSLYKMDVTQT | 0.833 ± 0.7
19 | HWTMYLVQLDSDSAIFFGHM | 2.52 ± 0.15
20 | HWTPC | inactive
21 | HYDSMTAL | 0.491 ± 0.62
22 | HYEVYAARVPNHHAKDIFWV | -0.024 ± 0.93

Row | Substance | amyloid nucleation score
23 | HYIFIRECYCIYLSIAFSQT | 0.33 ± 0.36
24 | HYSFFE | -0.806 ± 0.8
25 | HYWDYAISRIR | -1.94 ± 2.4
26 | IAFTVWADWYLPKLGLIREL | 0.508 ± 0.74
27 | IAHFELMRHNVHLKWVESWL | 0.911 ± 0.27
28 | IANCQAGWGCRQA | 0.315 ± 0.32
29 | IAVNSYASVDTYTSLLIRWL | 0.993 ± 0.36
30 | IAVSFSVVL | 5.49 ± 0.056
31 | ICDYPIVMRKYPVS | -1.68 ± 1.4
32 | ICIDCYQGC | -0.721 ± 1.9
33 | ICKDKHAIV | -0.282 ± 0.37
34 | ICNFERILRNMVFAWWYKID | 0.621 ± 0.42
35 | ICNQCNNSGTQLYCIKLYMR | 6.099 ± 0.045
36 | ICSIITPRPGFPTVLRSMKK | 0.846 ± 0.81
37 | ICTEIRRGLHE | 1.11 ± 0.71
38 | ICVSSGSVIIIVTYFAKCPA | 0.484 ± 0.24
39 | ICWLC | 6.912 ± 0.055
40 | ICYTLTMVMAGVEAGGATLV | 0.294 ± 0.95
41 | IDCIWGLCNWFHSLVMCVHS | inactive
42 | IDGLNNYTSYNGTR | -0.219 ± 0.62
43 | IDHSNTIFMSQCRRLSVPE | -0.889 ± 1.7
44 | IDNMGT | 2.4 ± 0.12

Row | Substance | amyloid nucleation score
45 | IDWSVHL | inactive
46 | IDWTVDKRSKLMYRGKGSVA | -0.306 ± 0.97
47 | IEIGSSF | 0.118 ± 0.6
48 | IELSILSGRRDL | -0.406 ± 0.2
49 | IEQMCTHVNYFGD | -0.548 ± 0.86
50 | IEWRVKLRLLRCQYID | -0.507 ± 0.34
51 | IFFCWTMFRS | 1.28 ± 0.21
52 | IFGCRLLYCS | 0.402 ± 1.4
53 | IFGFVWDPKTNYMTGLFASI | -0.231 ± 0.5
54 | IFHGRNYSFSS | -0.422 ± 0.45
55 | IFMSRWG | 2.78 ± 0.14
56 | IFNCVVLFSNTFMGYRFPFH | 6.273 ± 0.045
57 | IFNSNLLLTATRGDSVIWPY | 3.26 ± 0.14
58 | IFQPFFAYSGKLVWPFKRDP | 4.01 ± 0.081
59 | IFSNQLYVERIVLDENKALL | 3.62 ± 0.094
60 | IFYLTSVFVFSLLKFMTCER | -1.17 ± 2.4
61 | IFYSLFEDTYGGYVLNTAYL | inactive
62 | IGAHRNRIWIWYCPVVPNAT | 3.1 ± 0.2
63 | IGARQLSFLHSIRTREMRVQ | inactive
64 | IGDGSFYGLRQRQEARGKRA | -0.437 ± 0.73
65 | IGFFPQDSYGFGLRTEINGL | 0.145 ± 0.69
66 | IGGCLETCCSLGDKLGRRKR | 1.07 ± 0.66

Row | Substance | amyloid nucleation score
67 | IGLAICNLLFSTGWGYQPLW | 5.75 ± 0.083
68 | IGLVCCCSSFEFMRWY | 2.49 ± 0.47
69 | IGMVSVSC | 0.037 ± 1.2
70 | IGNPMWCQWSAL | 0.721 ± 0.74
71 | IGRMIRVCYVVCYEVDMTTS | 0.725 ± 0.47
72 | IGSFDYGSNLGQIYGHNMLK | -0.685 ± 0.6
73 | IGSLGMCLQCYGAGV | 0.147 ± 1.2
74 | IGSMNCRLLVTWKMVWLVPH | -0.187 ± 0.5
75 | IGSVDALKVVDVAMCVPT | 2.34 ± 0.54
76 | IGTGCSDILRIWRECVNLRG | 1.5 ± 0.56
77 | IGVSVTPLLLKNKRPVTDVM | 1.07 ± 0.84
78 | IGVVVWRPNLILRKEYLWRV | -0.858 ± 2.1
79 | IGVYSKNAQKGIRRDWCLWN | 1.33 ± 0.62
80 | IGWFHHFHHATLHRAISVFL | 0.633 ± 0.42
81 | IGWNFAFVSGILVW | inactive
82 | IGYRCIVLS | 1.24 ± 0.45
83 | IHNFIVSRDRMTGENGSGCM | -0.944 ± 0.41
84 | IHWFVFYFLKKFCYYRSYAR | 0.389 ± 0.4
85 | IIAIPHLTLSWTNLSMGQG | 3.76 ± 0.1
